Data from patent US20250206802A1.
Each block holds one molecule with its values, some of them ahead of it.

Columns and labels:
[1] = molecular target: αVβ6 headpiece (soluble, disulfide-linked: αv headpiece residues 1-594 with M400C and β6 headpiece residues 1-474 with I270C) (UniProt P06756); assay: fluorescence anisotropy; pH 5.0
Target sequence in this assay (P06756 other isoform, or with tags, fused parts or gaps M400C I270C, chain 1 of 2): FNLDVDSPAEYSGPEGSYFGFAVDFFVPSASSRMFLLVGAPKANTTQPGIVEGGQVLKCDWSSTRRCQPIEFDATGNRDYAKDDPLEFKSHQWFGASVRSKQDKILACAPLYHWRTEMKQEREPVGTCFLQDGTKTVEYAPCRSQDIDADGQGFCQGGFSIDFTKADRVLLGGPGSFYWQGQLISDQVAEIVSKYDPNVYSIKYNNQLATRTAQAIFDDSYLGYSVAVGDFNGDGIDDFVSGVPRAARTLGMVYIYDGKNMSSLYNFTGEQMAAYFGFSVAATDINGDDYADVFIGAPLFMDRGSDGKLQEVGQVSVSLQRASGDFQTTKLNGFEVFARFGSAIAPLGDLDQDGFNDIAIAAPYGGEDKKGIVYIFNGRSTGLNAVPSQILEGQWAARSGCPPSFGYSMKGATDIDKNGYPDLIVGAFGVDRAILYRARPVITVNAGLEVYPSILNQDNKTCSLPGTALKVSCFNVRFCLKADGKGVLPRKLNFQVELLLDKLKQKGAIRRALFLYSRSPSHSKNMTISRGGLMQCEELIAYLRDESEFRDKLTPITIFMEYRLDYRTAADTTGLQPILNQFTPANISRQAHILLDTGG
Target sequence in this assay (P18564 other isoform, or with tags, fused parts or gaps M400C I270C, chain 2 of 2, further chain): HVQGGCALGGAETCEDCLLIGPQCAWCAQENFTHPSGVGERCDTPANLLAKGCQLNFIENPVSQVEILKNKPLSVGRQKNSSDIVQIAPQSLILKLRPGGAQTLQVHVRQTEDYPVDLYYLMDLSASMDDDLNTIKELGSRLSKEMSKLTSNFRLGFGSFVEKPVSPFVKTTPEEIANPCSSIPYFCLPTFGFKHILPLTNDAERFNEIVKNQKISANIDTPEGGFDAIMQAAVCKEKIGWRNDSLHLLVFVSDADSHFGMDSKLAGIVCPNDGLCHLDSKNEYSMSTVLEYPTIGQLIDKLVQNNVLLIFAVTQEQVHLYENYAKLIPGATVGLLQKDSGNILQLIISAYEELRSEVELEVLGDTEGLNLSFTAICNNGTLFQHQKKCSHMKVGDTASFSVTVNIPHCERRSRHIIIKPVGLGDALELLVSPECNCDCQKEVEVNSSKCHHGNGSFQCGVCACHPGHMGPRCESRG

[2] = molecular target: αVβ6 headpiece (soluble, disulfide-linked: αv headpiece residues 1-594 with M400C and β6 headpiece residues 1-474 with I270C) (UniProt P06756); assay: fluorescence anisotropy; pH 6.0
Target sequence in this assay (P06756 other isoform, or with tags, fused parts or gaps M400C I270C, chain 1 of 2): as the sequence (P06756 other isoform, or with tags, fused parts or gaps M400C I270C, chain 1 of 2) above
Target sequence in this assay (P18564 other isoform, or with tags, fused parts or gaps M400C I270C, chain 2 of 2, further chain): as the sequence (P18564 other isoform, or with tags, fused parts or gaps M400C I270C, chain 2 of 2, further chain) above

[3] = molecular target: αVβ6 headpiece (soluble, disulfide-linked: αv headpiece residues 1-594 with M400C and β6 headpiece residues 1-474 with I270C) (UniProt P06756); assay: fluorescence anisotropy; pH 7.0
Target sequence in this assay (P06756 other isoform, or with tags, fused parts or gaps M400C I270C, chain 1 of 2): as the sequence (P06756 other isoform, or with tags, fused parts or gaps M400C I270C, chain 1 of 2) above
Target sequence in this assay (P18564 other isoform, or with tags, fused parts or gaps M400C I270C, chain 2 of 2, further chain): as the sequence (P18564 other isoform, or with tags, fused parts or gaps M400C I270C, chain 2 of 2, further chain) above

[4] = molecular target: αVβ6 headpiece (soluble, disulfide-linked: αv headpiece residues 1-594 with M400C and β6 headpiece residues 1-474 with I270C) (UniProt P06756); assay: fluorescence anisotropy; pH 8.0
Target sequence in this assay (P06756 other isoform, or with tags, fused parts or gaps M400C I270C, chain 1 of 2): as the sequence (P06756 other isoform, or with tags, fused parts or gaps M400C I270C, chain 1 of 2) above
Target sequence in this assay (P18564 other isoform, or with tags, fused parts or gaps M400C I270C, chain 2 of 2, further chain): as the sequence (P18564 other isoform, or with tags, fused parts or gaps M400C I270C, chain 2 of 2, further chain) above

[5] = molecular target: αVβ6 headpiece (soluble, disulfide-linked: αv headpiece residues 1-594 with M400C and β6 headpiece residues 1-474 with I270C) (UniProt P06756); assay: fluorescence anisotropy; pH 9.0
Target sequence in this assay (P06756 other isoform, or with tags, fused parts or gaps M400C I270C, chain 1 of 2): as the sequence (P06756 other isoform, or with tags, fused parts or gaps M400C I270C, chain 1 of 2) above
Target sequence in this assay (P18564 other isoform, or with tags, fused parts or gaps M400C I270C, chain 2 of 2, further chain): as the sequence (P18564 other isoform, or with tags, fused parts or gaps M400C I270C, chain 2 of 2, further chain) above

[6] = molecular target: αVβ3 headpiece (soluble, disulfide-linked: αv headpiece residues 1-594 with M400C and β3 headpiece residues 1-472 with Q267C) (UniProt P06756); assay: fluorescence anisotropy competition
Target sequence in this assay (P06756 other isoform, or with tags, fused parts or gaps M400C Q267C, chain 1 of 2): as the sequence (P06756 other isoform, or with tags, fused parts or gaps M400C I270C, chain 1 of 2) above
Target sequence in this assay (P05106 27-498 Q293C, chain 2 of 2, further chain): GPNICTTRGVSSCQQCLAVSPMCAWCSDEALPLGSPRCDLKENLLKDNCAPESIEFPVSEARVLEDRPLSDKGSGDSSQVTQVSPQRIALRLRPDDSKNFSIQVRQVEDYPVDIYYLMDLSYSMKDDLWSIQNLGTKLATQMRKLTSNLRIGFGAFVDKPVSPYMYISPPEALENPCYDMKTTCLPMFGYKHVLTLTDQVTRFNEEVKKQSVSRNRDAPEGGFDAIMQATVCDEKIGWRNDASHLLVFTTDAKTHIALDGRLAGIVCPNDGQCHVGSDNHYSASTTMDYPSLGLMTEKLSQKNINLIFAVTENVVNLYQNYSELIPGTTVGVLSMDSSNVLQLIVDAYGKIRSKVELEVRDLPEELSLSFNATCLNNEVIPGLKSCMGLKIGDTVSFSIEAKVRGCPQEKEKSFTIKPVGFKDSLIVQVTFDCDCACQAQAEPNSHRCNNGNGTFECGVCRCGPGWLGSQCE

[7] = molecular target: αVβ6 headpiece (soluble, disulfide-linked: αv headpiece residues 1-594 with M400C and β6 headpiece residues 1-474 with I270C) (UniProt P06756); assay: competitive fluorescence anisotropy on αVβ6 headpiece
Target sequence in this assay (P06756 other isoform, or with tags, fused parts or gaps M400C I270C M400C I270C, chain 1 of 2): as the sequence (P06756 other isoform, or with tags, fused parts or gaps M400C I270C, chain 1 of 2) above
Target sequence in this assay (chain, as listed by the source M400C I270C M400C I270C, chain 2 of 2): as the sequence (P18564 other isoform, or with tags, fused parts or gaps M400C I270C, chain 2 of 2, further chain) above

[8] = molecular target: αVβ3 headpiece (soluble, disulfide-linked: αv headpiece residues 1-594 with M400C and β3 headpiece residues 1-472 with Q267C) (UniProt P06756); assay: fluorescence anisotropy, competition with FITC-GRGDLGRL on αVβ3 headpiece
Target sequence in this assay (P06756 other isoform, or with tags, fused parts or gaps M400C Q267C M400C Q267C, chain 1 of 2): as the sequence (P06756 other isoform, or with tags, fused parts or gaps M400C I270C, chain 1 of 2) above
Target sequence in this assay (chain, as listed by the source M400C Q267C M400C Q267C, chain 2 of 2): as the sequence (P05106 27-498 Q293C, chain 2 of 2, further chain) above

[9] = molecular target: αVβ6 headpiece (soluble, disulfide-linked: αv headpiece residues 1-594 with M400C and β6 headpiece residues 1-474 with I270C) (UniProt P06756); assay: fluorescence anisotropy, competition with FITC-GRGDLGRL on αVβ6 headpiece
Target sequence in this assay (P06756 other isoform, or with tags, fused parts or gaps M400C I270C M400C I270C, chain 1 of 2): as the sequence (P06756 other isoform, or with tags, fused parts or gaps M400C I270C, chain 1 of 2) above
Target sequence in this assay (chain, as listed by the source M400C I270C M400C I270C, chain 2 of 2): as the sequence (P18564 other isoform, or with tags, fused parts or gaps M400C I270C, chain 2 of 2, further chain) above

Kd [1]: 3810 nM
Kd [2]: 2000 nM
Kd [3]: 212 nM
Kd [4]: 84.6 nM
Kd [5]: 27.4 nM
Molecule: FITC-GRGDLGRL (SEQ ID NO: 68), FITC-pro-TGF-β3 peptide

Kd [6]: 1600 nM
Molecule: GRGDSP (SEQ ID NO: 72) peptide of fibronectin

step-wise drop in affinity (fold, against the peptide one residue longer) [7]: 10 fold
B1: TGF-β3 undecapeptide truncated from the C-terminus until Leu-244 is removed (peptide)
peptide: HGRGD

step-wise drop in affinity (fold, against the peptide one residue longer) [7]: 10 fold
B2: TGF-β3 undecapeptide truncated from the C-terminus until Leu-247 is removed (peptide)
peptide: HGRGDLGR

fold lower affinity than for αVβ6 [8]: 1000 fold
Kd [9]: 8.5 nM
B3: nonapeptide containing RGD from pro-TGF-β3, … (SEQ ID NO: 75) (peptide)
peptide: GRGDLGRLK
